This is an account of results in patent US20180036395A1, “DOSAGE AND ADMINISTRATION OF MONOSPECIFIC AND BISPECIFIC ANTI-IGR-1R AND ANTI-ERBB3 ANTIBODIES” (Merrimack Pharmaceuticals, Inc., priority 2012, published 2018).

The test system of one assay is BxPC-3 cells. Nature of the assay: In vitro signaling ELISA, KRAS wild-type cells. It is filed as cell-based, human. Conditions: combination 500 nM P4-G1-M1.3 + 250 nM GSK1120212, 24 hours, 10% serum, FIG. 3. The procedure: Cells were treated with 500 nM P4-G1-M1.3, 250 nM GSK1120212 or the combination for 24 hours in 10% serum and ELISA assays were performed. The data was normalized to 10% serum without treatment.
The preclinical models to support this example are performed using BxPC-3 (KRAS wild-type) and KP4 (KRAS mutant) cell lines.

For assay [1], the system named is gastrointestinal neuroendocrine tumors. Put plainly: Treatment of patients with gastrointestinal neuroendocrine tumors. It is filed as in vivo, human. The procedure: (§1) P4-G1-M1.3 is formulated in 20 mM histidine, 100 mM arginine-HCl, 3% sucrose, at pH 5.5 supplemented with 0.002-0.02% of Tween® 80 at concentration range 5-15 mg/mL. P4-G1-M1.3 is administered to patients at 6 mg/kg, 12 mg/kg, 20 mg/kg, 30 mg/kg, 40 mg/kg, 50 mg/kg or 60 mg/kg q7d, ql4d, q21d, or q28d with a loading dose of 12 mg/kg, 20 mg/kg, 40 mg/kg, 40 mg/kg or 60 mg/kg Everolimus is administered to patients at 2.5 mg, 5 mg, or 10 mg orally once a day or once every other day.
Patients with gastrointestinal neuroendocrine tumors are treated by administration of either monotherapy with an effective amount of everolimus or an effective amount of P4-G1-M1.3, or with combination therapy comprising or consisting of administration of both the effective amount of everolimus and the effective amount of P4-G1-M1.3. P4-G1-M1.3 and everolimus are prepared and dosed as described in Example 1.
Patients with gastrointestinal neuroendocrine tumors are treated by administration of either monotherapy with an effective amount of mTOR inhibitor temsirolimus (Torisel®) or an effective amount of P4-G1-M1.3, or with combination therapy comprising or consisting of administration of both the effective amount of temsirolimus and the effective amount of P4-G1-M1.3. P4-G1-M1.3 is prepared and dosed as described in Example 1. Temsirolimus is dosed at 2.5 mg, 7.5 mg, 15 mg, or 25 mg (25 mg is the manufacturer's recommended dose) infused over a 30-60 minute period once a week.
Patients with gastrointestinal neuroendocrine tumors are treated by administration of either monotherapy with an effective amount of mTOR inhibitor sirolimus (Rapamune®) or an effective amount of P4-G1-M1.3, or with combination therapy comprising or consisting of administration of both the effective amount of sirolimus and the effective amount of P4-G1-M1.3. P4-G1-M1.3 is prepared and dosed as described in Example 1.

In assay [2] the test system is DU145 prostate cancer cells. Nature of the assay: DU145 prostate cancer xenograft study. It is filed as in vivo, human. Conditions: combination of docetaxel (10mpk q7d) and P4-G1-M1.3 (30mpk, q3d); FIG. 4. The method, then:
(§2) The y-axis represents mean tumor volume in mm^3 and the x-axis represents time in days.
For each of the xenograft studies below, cells are resuspended 1:1 with PBS:Growth factor-reduced Matrigel® and injected subcutaneously into Nu/Nu mice. Tumors are allowed to develop for 8 days. Antibodies are injected intraperitoneally every 3 days (q3d) at the indicated doses/mouse. Tumor lengths and widths are measured twice a week manually by caliper, and tumor volume calculated using the following formula: π/6(L×W^2). Each arm of a study contains 10 animals. All studies are carried out using methods approved by an internal IACUC panel.
Statistical significance across groups was determined using the student's T-test (*,p<0.05 vs control.; #,p<0.05 vs docetaxel; a,p<0.05 vs P4-G1-M1.3).

In the next assay the test system is pancreatic carcinoma. Put plainly: Treatment of patients with pancreatic cancer. It is filed as in vivo, human. The method, then:
as §1
Patients with pancreatic carcinoma are treated with a combination of an effective amount of gemcitabine, cytarabine, capecitabine, or 5-fluorouracil (5-FU) and an effective amount of P4-G1-M1.3. Patients are dosed with P4-G1-M1.3 as described in Example 1. Patients are dosed with the manufacturer's recommended dose of gemcitabine, capecitabine or 5-FU.
Patients with pancreatic cancer (KRAS wild-type and KRAS mutant) are treated with a combination of an effective amount of a MEK inhibitor (e.g., GSK1120212, BAY 86-9766 or AZD6244) and an effective amount of P4-G1-M1.3. Patients are dosed with P4-G1-M1.3 as described in Example 1. The clinical dose of MEK inhibitor is the dose used for that inhibitor in phase II or phase III clinical trials.

Assay [3] relates to Caki-1 renal cell carcinoma cancer cells. Nature of the assay: Caki-1 renal cell carcinoma xenograft study. The assay is classed as in vivo, human. The procedure:
as §2
For each of the xenograft studies below, cells are resuspended 1:1 with PBS:Growth factor-reduced Matrigel® and injected subcutaneously into Nu/Nu mice. Tumors are allowed to develop for 8 days. Antibodies are injected intraperitoneally every 3 days (q3d) at the indicated doses/mouse. Tumor lengths and widths are measured twice a week manually by caliper, and tumor volume calculated using the following formula: π/6(L×W^2). Each arm of a study contains 10 animals. All studies are carried out using methods approved by an internal IACUC panel. […]

The subject of another assay is melanoma. Put plainly: Treatment of patients with melanoma. Conditions: vemurafenib or dabrafenib + P4-G1-M1.3. It is filed as in vivo, human. The procedure:
as §1
Patients with melanoma are treated by administration of either monotherapy with an effective amount of vemurafenib (Zelboraf®) or an effective amount of P4-G1-M1.3, or with combination therapy comprising or consisting of administration of both the effective amount of vemurafenib or dabrafenib and the effective amount of P4-G1-M1.3. P4-G1-M1.3 is formulated and administered as described above in Example 1. Vemurafenib is given orally at 960 mg 1-2 times daily. Dabrafenib is administered as administered in dabrafenib phase III clinical trials.

Assay [4] has as its system Ewing's sarcoma or metastatic pancreatic cancer. Put plainly: Treatment of patients with Ewing's sarcoma or metastatic pancreatic cancer. The assay is classed as in vivo, human. Particulars: irinotecan or nanoliposomal irinotecan + P4-G1-M1.3. The method, then: as §1
Patients with Ewing's sarcoma or metastatic pancreatic cancer are treated with a combination of an effective amount of irinotecan (Camptosar®) or nanoliposomal irinotecan and an effective amount of P4-G1-M1.3. P4-G1-M1.3 is formulated and administered as described above (e.g., Example 1). Nanoliposomal irinotecan is given i.v. at 80 mg/m^2 or 120 mg/m^2 q3w. Camptosar® is administered per manufacturer's directions.

B1: P4-G1-M1.3: anti-IGF-1R+anti-ErbB3 polyvalent bispecific antibody, IgG1-(scFv)2 (SEQ ID NO:148 and SEQ ID NO:149) (protein)
chain 1: EVQLLQSGGGLVQPGGSLRLSCAASGFLFSSYPMHWVRQAPGKGLEWVGSISPSGGATPYADSVKGRFTISRDNSKNTLYLQMNSLRPEDTAVYYCAKDFYNILTGNAFDKWGQGTSVTVSSASTGGGGSGGGGSGGGGSGGGGSDIQLTQSPSSLSASLGDRVTITCRASQGISSYLAWYQQKPGKAPKLLIYAGSTPQSGVPSRFSGSGSGTEFTLTISSLQPEDSGTYYCQQYWTWPLTFGGGTKVEIKRT
chain 2: EVQLVESGGGLVQPGRSLRLSCAASGFTFDDYAMHWVRQAPGKGLEWVSGISWNSGSTGYADSVKGRFTISRDNAKNSLYLQMNSLRAEDTALYYCARDLGYNQWLEGFDYWGQGTLVTVSSASTGGGGSGGGGSGGGGSGGGGSSSELTQDPAVSVALGQTVRITCQGDSLRSYYASWYQQKPGQAPVLVIYGKNNRPSGIPDRFSGSSSGNTASLTITGAQAEDEADYYCMSRDHPGNQWVFGGGTKVTVLG
modifications: Synthetic polypeptide:Anti-IGF-1R scFvs M76; Synthetic polypeptide:Anti-ErbB3 scFvs P6L
As to B1, in the assay with BxPC-3 cells, the “signaling (pAkt Ser473, pERK)” value is “inhibition of signaling”. In addition, the treatment outcome was “combinatorially enhanced outcome” in assay [1] (everolimus + P4-G1-M1.3); “combinatorially enhanced outcome” in assay [1] (sirolimus + P4-G1-M1.3); “combinatorially enhanced outcome” in assay [1] (temsirolimus + P4-G1-M1.3); “combinatorially enhanced outcome” in the assay with pancreatic carcinoma (pancreatic cancer (KRAS wild-type and KRAS mutant), MEK inhibitor (GSK1120212, BAY 86-9766 or AZD6244) + P4-G1-M1.3); “combinatorially enhanced outcome” in the assay with pancreatic carcinoma (patients with pancreatic carcinoma, gemcitabine, cytarabine, capecitabine, or 5-fluorouracil + P4-G1-M1.3); “combinatorially enhanced outcome” with melanoma. In assay [4], the treatment outcome is “combinatorially enhanced outcome”. Further, the “growth of DU145 prostate cancer cells in vivo (mean tumor volume)” value in assay [2] is “inhibition of growth”. In addition, the “response to everolimus (tumor growth)” value in assay [3] (Caki-1 xenograft in Nu/Nu mice, 3mpk everolimus+500 μg P4-G1-M1.3, FIG. 1) was “potentiates responses to everolimus”. Besides, in assay [3] (Caki-1 xenograft in Nu/Nu mice, P4-G1-M1.3 at 500, 300, or 100 μg, FIG. 1), the “tumor growth (mean tumor volume)” value was “suppresses tumor growth”. Further, the tumor growth entry in assay [3] (Caki-1 xenograft, Example 12) was “suppresses tumor growth”. For the same molecule, the response to sirolimus entry in assay [3] (Caki-1 xenograft, combination with sirolimus) is “potentiates responses to sirolimus”.
